# Reference: patent US20200283741
# T1: HbA1c-type αF8P (α-fructosyl-valyl-histidyl-leucyl-threonyl-prolyl-glutamyl-glutamyl-lysine)
# T1 chain: VHLTPEEK
# T2: HbC1c-type αF8P
# T2 chain: VHLTPKEK
# T3: HbS1c-type αF8P
# T3 chain: VHLTPVEK
# B1: glycated hexapeptide oxidase derived from Emericella nidulans (En42FX) (protein)
# chain: MAPRANTKIIVVGGGGTMGSSTALHLLRAGYTPSNITVLDTYPIPSAQSAGYDLNKIFGISGANKHDLQLSLEAFDMWKNDPLFKPFFHNVGQMDVSSTEEGIKRLRRRYQSLLRAGIGLEKTNFLLESEDEILAKAPHFTREQIKGWKGLFCGDGGWLAAAKAINAIGQFLKEQGVKFGFGEAGTFKKPLFADADEKTCIGVETVDGTKYYADKVVLAAGAWSSTLVDLEEQCVSKAWVFAHIQLTPAEAAAYKNTPVIYDGDYGFFIEPDENGIIKVCDEFPGFTHFKMHQPYGSPVPKLISVPRSHAKHPTDTYPHASEVTIKKAINRFLPRFNDKELFNRAMCWCTDTADSNLLVCEHPRWKGFYLATGDSGHSFKLLPNIGKHVVELLEGRLESVFKDAWRWRPGSGDALKSRRAAPAKDLADMPGWRNEAKM
# B2: En42FX R105A (protein)
# chain: MAPRANTKIIVVGGGGTMGSSTALHLLRAGYTPSNITVLDTYPIPSAQSAGYDLNKIFGISGANKHDLQLSLEAFDMWKNDPLFKPFFHNVGQMDVSSTEEGIKALRRRYQSLLRAGIGLEKTNFLLESEDEILAKAPHFTREQIKGWKGLFCGDGGWLAAAKAINAIGQFLKEQGVKFGFGEAGTFKKPLFADADEKTCIGVETVDGTKYYADKVVLAAGAWSSTLVDLEEQCVSKAWVFAHIQLTPAEAAAYKNTPVIYDGDYGFFIEPDENGIIKVCDEFPGFTHFKMHQPYGSPVPKLISVPRSHAKHPTDTYPHASEVTIKKAINRFLPRFNDKELFNRAMCWCTDTADSNLLVCEHPRWKGFYLATGDSGHSFKLLPNIGKHVVELLEGRLESVFKDAWRWRPGSGDALKSRRAAPAKDLADMPGWRNEAKM
# B3: En42FX R108S (protein)
# chain: MAPRANTKIIVVGGGGTMGSSTALHLLRAGYTPSNITVLDTYPIPSAQSAGYDLNKIFGISGANKHDLQLSLEAFDMWKNDPLFKPFFHNVGQMDVSSTEEGIKRLRSRYQSLLRAGIGLEKTNFLLESEDEILAKAPHFTREQIKGWKGLFCGDGGWLAAAKAINAIGQFLKEQGVKFGFGEAGTFKKPLFADADEKTCIGVETVDGTKYYADKVVLAAGAWSSTLVDLEEQCVSKAWVFAHIQLTPAEAAAYKNTPVIYDGDYGFFIEPDENGIIKVCDEFPGFTHFKMHQPYGSPVPKLISVPRSHAKHPTDTYPHASEVTIKKAINRFLPRFNDKELFNRAMCWCTDTADSNLLVCEHPRWKGFYLATGDSGHSFKLLPNIGKHVVELLEGRLESVFKDAWRWRPGSGDALKSRRAAPAKDLADMPGWRNEAKM
# B4: En42FX R108A (protein)
# chain: MAPRANTKIIVVGGGGTMGSSTALHLLRAGYTPSNITVLDTYPIPSAQSAGYDLNKIFGISGANKHDLQLSLEAFDMWKNDPLFKPFFHNVGQMDVSSTEEGIKRLRARYQSLLRAGIGLEKTNFLLESEDEILAKAPHFTREQIKGWKGLFCGDGGWLAAAKAINAIGQFLKEQGVKFGFGEAGTFKKPLFADADEKTCIGVETVDGTKYYADKVVLAAGAWSSTLVDLEEQCVSKAWVFAHIQLTPAEAAAYKNTPVIYDGDYGFFIEPDENGIIKVCDEFPGFTHFKMHQPYGSPVPKLISVPRSHAKHPTDTYPHASEVTIKKAINRFLPRFNDKELFNRAMCWCTDTADSNLLVCEHPRWKGFYLATGDSGHSFKLLPNIGKHVVELLEGRLESVFKDAWRWRPGSGDALKSRRAAPAKDLADMPGWRNEAKM
# B5: En42FX R105E (protein)
# chain: MAPRANTKIIVVGGGGTMGSSTALHLLRAGYTPSNITVLDTYPIPSAQSAGYDLNKIFGISGANKHDLQLSLEAFDMWKNDPLFKPFFHNVGQMDVSSTEEGIKELRRRYQSLLRAGIGLEKTNFLLESEDEILAKAPHFTREQIKGWKGLFCGDGGWLAAAKAINAIGQFLKEQGVKFGFGEAGTFKKPLFADADEKTCIGVETVDGTKYYADKVVLAAGAWSSTLVDLEEQCVSKAWVFAHIQLTPAEAAAYKNTPVIYDGDYGFFIEPDENGIIKVCDEFPGFTHFKMHQPYGSPVPKLISVPRSHAKHPTDTYPHASEVTIKKAINRFLPRFNDKELFNRAMCWCTDTADSNLLVCEHPRWKGFYLATGDSGHSFKLLPNIGKHVVELLEGRLESVFKDAWRWRPGSGDALKSRRAAPAKDLADMPGWRNEAKM
# B6: En42FX R105Q (protein)
# chain: MAPRANTKIIVVGGGGTMGSSTALHLLRAGYTPSNITVLDTYPIPSAQSAGYDLNKIFGISGANKHDLQLSLEAFDMWKNDPLFKPFFHNVGQMDVSSTEEGIKQLRRRYQSLLRAGIGLEKTNFLLESEDEILAKAPHFTREQIKGWKGLFCGDGGWLAAAKAINAIGQFLKEQGVKFGFGEAGTFKKPLFADADEKTCIGVETVDGTKYYADKVVLAAGAWSSTLVDLEEQCVSKAWVFAHIQLTPAEAAAYKNTPVIYDGDYGFFIEPDENGIIKVCDEFPGFTHFKMHQPYGSPVPKLISVPRSHAKHPTDTYPHASEVTIKKAINRFLPRFNDKELFNRAMCWCTDTADSNLLVCEHPRWKGFYLATGDSGHSFKLLPNIGKHVVELLEGRLESVFKDAWRWRPGSGDALKSRRAAPAKDLADMPGWRNEAKM
# B7: En42FX R105N (protein)
# chain: MAPRANTKIIVVGGGGTMGSSTALHLLRAGYTPSNITVLDTYPIPSAQSAGYDLNKIFGISGANKHDLQLSLEAFDMWKNDPLFKPFFHNVGQMDVSSTEEGIKNLRRRYQSLLRAGIGLEKTNFLLESEDEILAKAPHFTREQIKGWKGLFCGDGGWLAAAKAINAIGQFLKEQGVKFGFGEAGTFKKPLFADADEKTCIGVETVDGTKYYADKVVLAAGAWSSTLVDLEEQCVSKAWVFAHIQLTPAEAAAYKNTPVIYDGDYGFFIEPDENGIIKVCDEFPGFTHFKMHQPYGSPVPKLISVPRSHAKHPTDTYPHASEVTIKKAINRFLPRFNDKELFNRAMCWCTDTADSNLLVCEHPRWKGFYLATGDSGHSFKLLPNIGKHVVELLEGRLESVFKDAWRWRPGSGDALKSRRAAPAKDLADMPGWRNEAKM
# B8: CFP-T7-H40-3M K113N (protein)
# chain: MTSNRADTRVIVVGGGGTIGSSTALHLVRSGYAPANITVLDTFEIPSAQSAGHDLNKIMGIDHGNKVNLQMSLEARQMWKEDELFQPFFHNTGRMDCESTPKGIEKLKKYYQNLHDAGAGLEKTHAWLDNEDEILSKMPLLQRDQIQGWKAIWSQDGGWLAAAKAINAIGQFLKERGVKFGFGGAGSFKQPLFDDEGTTCIGVETADGTKYYADKVVLAAGAWSPTLVDLEDQCCSKAWVYAHIQLTPEEAAEYKGVPVVYNSEYGFFFEPDEFGVIKVCNEFPGFSRFKEHQPYGAPSPKRISVPRSHAKHPTDTYPDASEVSIKKAIATFLPRFQDKELFNRALCWCTDTADSTLLMCEHPKWKNFILATGDSGHSFKILPNVGKYVVELIEGRLPEEMAYQWRWRPGGDALKSRRAAPPKDLADMPGWKHDPKL
# B9: CFP-T7-H40-3M K113D (protein)
# chain: MTSNRADTRVIVVGGGGTIGSSTALHLVRSGYAPANITVLDTFEIPSAQSAGHDLNKIMGIDHGNKVNLQMSLEARQMWKEDELFQPFFHNTGRMDCESTPKGIEKLKKYYQDLHDAGAGLEKTHAWLDNEDEILSKMPLLQRDQIQGWKAIWSQDGGWLAAAKAINAIGQFLKERGVKFGFGGAGSFKQPLFDDEGTTCIGVETADGTKYYADKVVLAAGAWSPTLVDLEDQCCSKAWVYAHIQLTPEEAAEYKGVPVVYNSEYGFFFEPDEFGVIKVCNEFPGFSRFKEHQPYGAPSPKRISVPRSHAKHPTDTYPDASEVSIKKAIATFLPRFQDKELFNRALCWCTDTADSTLLMCEHPKWKNFILATGDSGHSFKILPNVGKYVVELIEGRLPEEMAYQWRWRPGGDALKSRRAAPPKDLADMPGWKHDPKL
# B10: CFP-T7-H40-3M K113Q (protein)
# chain: MTSNRADTRVIVVGGGGTIGSSTALHLVRSGYAPANITVLDTFEIPSAQSAGHDLNKIMGIDHGNKVNLQMSLEARQMWKEDELFQPFFHNTGRMDCESTPKGIEKLKKYYQQLHDAGAGLEKTHAWLDNEDEILSKMPLLQRDQIQGWKAIWSQDGGWLAAAKAINAIGQFLKERGVKFGFGGAGSFKQPLFDDEGTTCIGVETADGTKYYADKVVLAAGAWSPTLVDLEDQCCSKAWVYAHIQLTPEEAAEYKGVPVVYNSEYGFFFEPDEFGVIKVCNEFPGFSRFKEHQPYGAPSPKRISVPRSHAKHPTDTYPDASEVSIKKAIATFLPRFQDKELFNRALCWCTDTADSTLLMCEHPKWKNFILATGDSGHSFKILPNVGKYVVELIEGRLPEEMAYQWRWRPGGDALKSRRAAPPKDLADMPGWKHDPKL
# What was measured:
# [1] = biological target: T1, HbA1c-type αF8P …
# HbC1c-type αF8P = biological target: T2, HbC1c-type αF8P
# HbS1c-type αF8P = biological target: T3, HbS1c-type αF8P
Protein,"relative activity on substrate (reference, designated as 100%) [1] [%]",relative activity on substrate (activity on HbA1c-type αF8P = 100%) (HbC1c-type αF8P) [%],relative activity on substrate (activity on HbA1c-type αF8P = 100%) (HbS1c-type αF8P) [%],specific activity on substrate [1],specific activity on substrate (HbC1c-type αF8P),specific activity on substrate (HbS1c-type αF8P)
B1,100,8,41,–,–,–
B2,100,33,70,–,–,–
B3,100,10,61,–,–,–
B4,100,57,70,–,–,–
B5,100,31,69,–,–,–
B6,100,25,70,–,–,–
B7,100,11,95,–,–,–
B8,100,42,95,at least 20 mU/mg,at least 20 mU/mg,at least 20 mU/mg
B9,100,39,93,at least 20 mU/mg,at least 20 mU/mg,at least 20 mU/mg
B10,100,50,106,at least 20 mU/mg,at least 20 mU/mg,at least 20 mU/mg
